Target: Nucleocapsid protein N (Rift Valley fever virus (strain M12)) (UniProt P21700)
Assay: FP competition
Settings: 10 mM HEPES pH 7.3 ([…]) or pH 8 ([…]

Chain of UniProt P21700 (P21700 whole entry): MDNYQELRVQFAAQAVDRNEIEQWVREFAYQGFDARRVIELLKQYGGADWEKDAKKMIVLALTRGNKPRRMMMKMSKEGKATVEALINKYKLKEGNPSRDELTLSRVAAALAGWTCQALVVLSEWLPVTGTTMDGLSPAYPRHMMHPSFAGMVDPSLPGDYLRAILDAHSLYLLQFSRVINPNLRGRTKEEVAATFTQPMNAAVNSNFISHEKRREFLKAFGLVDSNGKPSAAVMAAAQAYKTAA

CGUCCCGUAGUGUCGGUACUGAUUGAUGUG [MBE15.3]
Ki: 200 nM

— article PMC3299919
